Measured values: US20240101663A1 (BIOTROY THERAPEUTICS, published 2024)

B1: CCDC112 recombinant protein (coiled-coil domain-containing protein 112) (ligand)
chain: MEKDKHSHFYNQKSDFRIEHSMLEELENKLIHSRKTERAKIQQQLAKIHNNVKKLQHQLKDVKPTPDFVEKLREMMEEIENAINTFKEEQRLIYEELIKEEKTTNNELSAISRKIDTWALGNSETEKAFRAISSKVPVDKVTPSTLPEEVLDFEKFLQQTGGRQGAWDDYDHQNFVKVRNKHKGKPTFMEEVLEHLPGKTQDEVQQHEKWYQKFLALEERKKESIQIWKTKKQQKREEIFKLKEKADNTPVLFHNKQEDNQKQKEEQRKKQKLAVEAWKKQKSIEMSMKCASQLKEEEEKEKKHQKERQRQFKLKLLLESYTQQKKEQEEFLRLEKEIREKAEKAEKRKNAADEISRFQERDLHKLELKILDRQAKEDEKSQKQRRLAKLKEKVENNVSRDPSRLYKPTKGWEERTKKIGPTGSGPLLHIPHRAIPTWRQGIQRRV
notes: also called CCDC112 protein; full-length CCDC112 protein
B2: monoclonal antibody S-78-02 (antibody, V domains shown)
VH: QVQLQQSGPELVKPGASVKIPCKTSGYSFTDYNIDWVKQGLGESLEWIGDINPNYGGTMYNQKFKGKATLTVDKSSNTAYMELRSLTSEDTAVYYCAHDEFIYWGQGTLVTVSA
VL: DIQMNQSPSSMFASLGERVTITCRASQDINTYLSWIQRKPGKSPKTLIYRANRLVDGVPSRFSGSGSGQDYSLTISSLEYEDMGIYYCLQYDEFPHTFGGGTKLEIK
notes: Mouse hybridoma monoclonal antibody raised against CCDC112 protein and detected with an anti-mouse secondary antibody; also called CCDC112 antibody; CCDC112 monoclonal antibody

Assays:
[1] = target: T1, LTBR-hFc (LTBR extracellular region protein fragment labeled with hFc) (UniProt P36941 31-227); experiment: ELISA at pH 6.5, coated CCDC112 gradient, LTBR-hFc 0.5 µg/mL; table gives no unit, unit from the x axis; target from the plot title (legend names CD30)
T1 construct: extracellular domain; Bought from ACRO Biosystems or Sino Biological; also called lymphotoxin-beta receptor; TNFRSF3
Protocol: (§1) Specifically, a special plate for ELISA (costar, ME, USA) was used. Firstly, different concentrations of CCDC112 recombinant proteins were dissolved in 100 μL of ELISA coating solution (Solarbio, Beijing, China) to coat the plate, and the negative control was coated with 100 μL of coating solution without protein. The plate was coated overnight at 4° C. After washing with PBST, 100 μL of 5% BSA dissolved in PBS (VWR, PA, USA) was used for blocking in the incubator at 37° C. for 90 min. […] The above-mentioned receptor protein was labeled with hFc (P-Fc) and binding was carried out in the incubator at 37° C. for 60 min. After washing with PBST, a specific anti-human Fc fragment antibody (Abcam, MA, USA) diluted in PBS was used for incubation and binding at 37° C. for 30 min. After washing with PBST, chromogenic solution (Sangon, Shanghai, China) was added at 100 μL per well for color development and reacted in an incubator for 5-30 min, and then 50 μL of stop solution (Sangon, Shanghai, China) was added, and chromogenic reading was then carried out under a microplate reader (Thermo Fisher, MA, USA) at 450 nm.

[2] = target: T2, CD30 extracellular region protein fragment labeled with hFc (UniProt P28908 19-385); experiment: ELISA at pH 7, coated CCDC112 gradient, CD30-hFc 0.5 µg/mL; value lies above the highest concentration shown, curve has no plateau; table gives no unit, unit from the x axis; target from the plot title (legend names LTBR)
T2 construct: extracellular domain; Bought from ACRO Biosystems or Sino Biological; not shown: human Fc label (hFc)
T2 sequence (looked up): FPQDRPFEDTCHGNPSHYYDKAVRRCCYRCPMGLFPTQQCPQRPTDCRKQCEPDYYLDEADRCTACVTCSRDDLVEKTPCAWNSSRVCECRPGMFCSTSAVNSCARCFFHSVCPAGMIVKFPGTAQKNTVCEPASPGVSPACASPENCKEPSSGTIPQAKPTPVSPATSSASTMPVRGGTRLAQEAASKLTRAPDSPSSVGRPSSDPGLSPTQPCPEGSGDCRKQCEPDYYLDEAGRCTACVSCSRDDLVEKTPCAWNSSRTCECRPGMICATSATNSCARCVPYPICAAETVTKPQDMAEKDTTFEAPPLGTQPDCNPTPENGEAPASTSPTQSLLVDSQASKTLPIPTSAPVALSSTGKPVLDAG
Protocol: as §1

[3] = target: T1, LTBR-hFc (LTBR extracellular region …); experiment: ELISA at pH 5.5, coated CCDC112 gradient, LTBR-hFc 0.5 µg/mL; table gives no unit, unit from the x axis; target from the plot title (legend names CD30)
Protocol: as §1

[4] = target: T2, CD30 extracellular region protein …; experiment: ELISA at pH 6, coated CCDC112 gradient, CD30-hFc 0.5 µg/mL; table gives no unit, unit from the x axis; target from the plot title (legend names LTBR)
Protocol: as §1

[5] = target: T1, LTBR-hFc (LTBR extracellular region …); experiment: ELISA at pH 6, coated CCDC112 gradient, LTBR-hFc 0.5 µg/mL; table gives no unit, unit from the x axis; target from the plot title (legend names CD30)
Protocol: as §1

[6] = target: T2, CD30 extracellular region protein …; experiment: ELISA at pH 5.5, coated CCDC112 gradient, CD30-hFc 0.5 µg/mL; table gives no unit, unit from the x axis; target from the plot title (legend names LTBR)
Protocol: as §1

[7] = target: T1, LTBR-hFc (LTBR extracellular region …); experiment: ELISA at pH 7.5, coated CCDC112 gradient, LTBR-hFc 0.5 µg/mL; ambiguous fit far outside the range shown, curve nearly flat; table gives no unit, unit from the x axis; target from the plot title (legend names CD30)
Protocol: as §1

[8] = target: T2, CD30 extracellular region protein …; experiment: ELISA at pH 6.5, coated CCDC112 gradient, CD30-hFc 0.5 µg/mL; table gives no unit, unit from the x axis; target from the plot title (legend names LTBR)
Protocol: as §1

[9] = target: B1; experiment: bio-layer interferometry (ProbeLife Gator), antibody (200 nM) immobilized, antigen 15 nM to 1.875 nM
Protocol: The dissociation constant (KD) of the antibody of the invention binding to human CCDC112 was determined using bio-layer interferometry on ProbeLife Gator according to conventional procedures.

[10] = target: T3, CCDC112 on HCT116 tumor cells (including HCT116 cells stably overexpressing CCDC112) (human, UniProt Q8NEF3 1-446); experiment: flow cytometry on HCT116 cells overexpressing CCDC112; table gives no unit, unit from the x axis 'Abs conc. nM'
T3 construct: also called CCDC112 on the surface of tumor cells; HCT116-CCDC112
T3 sequence: B1 chain
Protocol: Further, the specific binding of the CCDC112 antibody to the antigen was verified by flow cytometry. The HCT116 cell line overexpressing CCDC112 was constructed by stable transfection of liposome, and the cells and the CCDC112 antibody were co-incubated, the unbound antibody was washed away, and then the anti-mouse secondary antibody (FITC modified) was used for flow cytometry and the percentage of cells that stain positive was analyzed.

[11] = target: B1; experiment: ELISA, coated full-length CCDC112 protein, antibody titrated; table gives no unit, unit from the x axis Ab(nM)

T1 sequence (P36941 31-227): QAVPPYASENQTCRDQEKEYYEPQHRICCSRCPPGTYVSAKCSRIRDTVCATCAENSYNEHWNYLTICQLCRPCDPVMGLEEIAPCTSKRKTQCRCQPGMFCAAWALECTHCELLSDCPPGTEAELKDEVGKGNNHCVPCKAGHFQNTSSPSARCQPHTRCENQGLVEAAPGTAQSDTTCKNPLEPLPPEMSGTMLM

Binder | EC50 [1] [µg/mL] | EC50 [2] [µg/mL] | EC50 [3] [µg/mL] | EC50 [4] [µg/mL] | EC50 [5] [µg/mL] | EC50 [6] [µg/mL] | EC50 [7] [µg/mL] | EC50 [8] [µg/mL] | Kd [9] [pM] | EC50 [10] [pM] | EC50 [11] [pM]
B1 | 1.94 | 16.1 | 0.922 | 1.91 | 1.26 | 2.11 | ~18100 | 4.61 |  |  | 
B2 |  |  |  |  |  |  |  |  | 468 | 980 | 64.4
